The values that follow come from patent US20100183544A1 (CSL, published 2010).

Assay [1] concerns the target T1, IL-11R-Fc.
T1 sequence (Q64385 whole entry, species assumed, looked up): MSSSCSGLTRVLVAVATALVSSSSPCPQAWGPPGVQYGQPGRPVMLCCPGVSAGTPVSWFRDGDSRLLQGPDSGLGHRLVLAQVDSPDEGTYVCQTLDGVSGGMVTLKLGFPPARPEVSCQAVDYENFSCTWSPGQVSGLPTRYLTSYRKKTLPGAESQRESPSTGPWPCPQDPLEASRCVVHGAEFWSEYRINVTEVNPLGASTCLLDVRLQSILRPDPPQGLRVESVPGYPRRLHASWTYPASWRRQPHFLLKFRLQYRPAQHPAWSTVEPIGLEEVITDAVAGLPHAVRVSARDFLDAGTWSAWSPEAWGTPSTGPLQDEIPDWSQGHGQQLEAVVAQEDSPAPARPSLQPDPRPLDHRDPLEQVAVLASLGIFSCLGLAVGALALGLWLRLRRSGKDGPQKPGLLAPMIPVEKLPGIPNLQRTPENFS
As to the kind of experiment: competition ELISA on IL-11R-Fc; reference murine W147A IL-11. In general terms: In an ELISA, binding on a coated surface is turned into a signal by an enzyme label.

The target of assay [2] is T1, IL-11R-Fc. As to the kind of experiment: IL-11R binding ELISA; reference non-PEGylated mutein.
Assay [3] deals with T2, murine IL-11R on Ba/F3 cells stably transfected with murine IL-11R/gp130 (murine, UniProt Q64385 24-432).
T2 sequence (looked up): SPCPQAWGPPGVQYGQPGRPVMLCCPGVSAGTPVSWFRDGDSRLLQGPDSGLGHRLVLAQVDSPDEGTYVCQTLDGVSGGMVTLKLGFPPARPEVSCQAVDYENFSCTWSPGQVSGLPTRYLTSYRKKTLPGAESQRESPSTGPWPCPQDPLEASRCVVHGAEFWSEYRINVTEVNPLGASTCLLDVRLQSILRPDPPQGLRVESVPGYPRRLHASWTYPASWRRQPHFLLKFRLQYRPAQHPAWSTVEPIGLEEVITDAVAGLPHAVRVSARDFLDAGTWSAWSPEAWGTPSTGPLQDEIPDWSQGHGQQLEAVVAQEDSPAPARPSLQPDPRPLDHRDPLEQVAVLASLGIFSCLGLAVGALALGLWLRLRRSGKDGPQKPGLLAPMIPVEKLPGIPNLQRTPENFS
As to the kind of experiment: cell-based or functional assay.

As for “IL-11 mutein of SEQ ID NO: 1 (murine IL-11 with AMSAG at positions 58-62 replaced by PAIDY and W147A), N-terminal His-tagged (from UniProt P47873 22-199) (ligand)”, in the assay with IL-11R-Fc [1], the fold higher binding affinity than murine W147A IL-11 came to 20 fold.

B1: PEGylated IL-11 mutein (SEQ ID NO: 3 with a single 40 kDa PEG on the Cys at position 147) (ligand)
chain: VSSDPRADLDSAVLLTRSLLADTRQLAAQMRDKFPADGDHSLDSLPTLPAIDYTLGSLQLPGVLTRLRVDLMSYLRHVQWLRRAGGPSLKTLEPELGALQARLERLLRRLQLLMSRLALPQAAPDQPVIPLGPPASACGSIRAAHAILGGLHLTLDWAVRGLLLLKTRL
modifications: mPEG2-maleimide (single 40 kDa PEG moiety) on the Cys residue introduced at position 147 (mature murine IL-11 numbering)
B1 registered a fold reduction of IL-11R binding affinity relative to non-PEGylated mutein with IL-11R-Fc [2] of 5 fold. For the same molecule, the “fold reduction against non-PEGylated mutein in antagonism of IL-11-induced Ba/F3 cell proliferation” value in assay [3] was roughly 10 fold.
